The values below come from patent US20110288005A1.

This assay has as its target bovine pancreatic trypsin (Sigma T1426) (bovine) (UniProt P00760). As to the kind of experiment: cell-based or functional assay.

bovine pancreatic trypsin (Sigma T1426) (bovine), sequence (P00760 24-246): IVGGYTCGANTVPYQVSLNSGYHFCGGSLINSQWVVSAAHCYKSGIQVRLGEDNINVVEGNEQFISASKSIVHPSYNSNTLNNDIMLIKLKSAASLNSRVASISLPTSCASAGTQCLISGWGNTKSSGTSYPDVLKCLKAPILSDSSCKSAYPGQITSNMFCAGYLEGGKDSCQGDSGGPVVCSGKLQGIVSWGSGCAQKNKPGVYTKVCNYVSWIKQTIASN

Substance aaT-XTEN_AE288 displayed a % Activity (compared to positive control plasma-derived aaT) of 65% and an IC50 (µM), equilibrium trypsin inhibition assay of 0.82 µM.

Take aaT-XTEN_AE576: the % Activity (compared to positive control plasma-derived aaT) came to 106% and the IC50 (µM), equilibrium trypsin inhibition assay amounted to 0.5 µM.
